Patent US8440430, “Modified dicer polypeptide and methods of use thereof” (The Regents of the University of California)

T1: ΔDEAD human Dicer (deletion of amino acids 1-604 spanning the entire DExD/H-box domain) (human, UniProt Q9UPY3 605-1922)
T1 construct: The DEAD-F primer adds an initiator Met; also called ΔDEAD hDcr; DExD/H-box deletion protein
T1 sequence: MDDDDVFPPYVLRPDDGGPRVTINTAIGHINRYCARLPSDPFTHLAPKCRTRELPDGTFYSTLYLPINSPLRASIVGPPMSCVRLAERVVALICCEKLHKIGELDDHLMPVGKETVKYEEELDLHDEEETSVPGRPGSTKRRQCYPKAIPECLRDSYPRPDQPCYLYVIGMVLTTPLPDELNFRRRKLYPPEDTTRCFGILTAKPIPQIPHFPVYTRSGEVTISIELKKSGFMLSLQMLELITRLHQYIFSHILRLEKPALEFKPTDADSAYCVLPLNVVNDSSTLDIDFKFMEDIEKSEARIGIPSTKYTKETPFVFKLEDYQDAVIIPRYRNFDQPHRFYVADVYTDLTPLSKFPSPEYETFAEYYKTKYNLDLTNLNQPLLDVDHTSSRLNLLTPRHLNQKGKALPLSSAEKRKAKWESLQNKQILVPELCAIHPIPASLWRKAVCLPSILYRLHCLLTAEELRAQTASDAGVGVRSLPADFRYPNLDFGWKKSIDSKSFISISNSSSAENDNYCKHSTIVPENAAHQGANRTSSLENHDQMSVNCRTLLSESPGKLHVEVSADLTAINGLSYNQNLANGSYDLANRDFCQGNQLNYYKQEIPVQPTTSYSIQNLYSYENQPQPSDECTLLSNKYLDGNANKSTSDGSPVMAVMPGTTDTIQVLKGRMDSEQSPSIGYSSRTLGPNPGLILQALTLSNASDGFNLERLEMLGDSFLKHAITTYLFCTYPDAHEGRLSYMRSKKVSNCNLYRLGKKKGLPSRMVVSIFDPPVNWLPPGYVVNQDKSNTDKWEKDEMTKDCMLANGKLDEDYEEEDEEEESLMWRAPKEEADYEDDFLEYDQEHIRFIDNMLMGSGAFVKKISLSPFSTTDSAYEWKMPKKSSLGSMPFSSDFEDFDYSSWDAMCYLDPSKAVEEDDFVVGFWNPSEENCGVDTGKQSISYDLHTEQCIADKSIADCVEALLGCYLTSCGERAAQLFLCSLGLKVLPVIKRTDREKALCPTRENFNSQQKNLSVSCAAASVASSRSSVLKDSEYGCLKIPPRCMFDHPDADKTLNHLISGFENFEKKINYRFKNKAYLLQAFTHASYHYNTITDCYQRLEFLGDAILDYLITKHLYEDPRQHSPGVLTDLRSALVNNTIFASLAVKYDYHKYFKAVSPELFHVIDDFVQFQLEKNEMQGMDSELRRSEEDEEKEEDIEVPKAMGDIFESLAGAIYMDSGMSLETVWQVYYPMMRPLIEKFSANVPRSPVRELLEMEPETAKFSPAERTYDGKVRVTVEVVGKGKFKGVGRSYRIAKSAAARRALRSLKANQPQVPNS

T2: TRBP, Q15633
T2 chain: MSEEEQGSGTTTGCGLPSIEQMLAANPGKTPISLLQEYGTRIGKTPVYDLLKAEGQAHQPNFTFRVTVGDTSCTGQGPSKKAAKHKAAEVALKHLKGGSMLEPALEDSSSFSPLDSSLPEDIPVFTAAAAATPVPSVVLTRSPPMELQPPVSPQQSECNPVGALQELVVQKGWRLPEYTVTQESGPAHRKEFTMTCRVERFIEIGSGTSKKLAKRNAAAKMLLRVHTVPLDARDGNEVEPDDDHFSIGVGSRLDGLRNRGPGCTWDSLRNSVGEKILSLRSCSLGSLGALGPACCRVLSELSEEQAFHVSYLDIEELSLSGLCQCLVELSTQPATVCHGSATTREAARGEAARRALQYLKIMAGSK

B1: TRBP (other, human, UniProt Q15633 1-366, looked up)
chain: T2 chain
notes: also called human partner protein TRBP
B2: full-length wild-type human Dicer (hDcr), accession no. NP-803187 (protein)
chain: MKSPALQPLSMAGLQLMTPASSPMGPFFGLPWQQEAIHDNIYTPRKYQVELLEAALDHNTIVCLNTGSGKTFIAVLLTKELSYQIRGDFSRNGKRTVFLVNSANQVAQQVSAVRTHSDLKVGEYSNLEVNASWTKERWNQEFTKHQVLIMTCYVALNVLKNGYLSLSDINLLVFDECHLAILDHPYREIMKLCENCPSCPRILGLTASILNGKCDPEELEEKIQKLEKILKSNAETATDLVVLDRYTSQPCEIVVDCGPFTDRSGLYERLLMELEEALNFINDCNISVHSKERDSTLISKQILSDCRAVLVVLGPWCADKVAGMMVRELQKYIKHEQEELHRKFLLFTDTFLRKIHALCEEHFSPASLDLKFVTPKVIKLLEILRKYKPYERQQFESVEWYNNRNQDNYVSWSDSEDDDEDEEIEEKEKPETNFPSPFTNILCGIIFVERRYTAVVLNRLIKEAGKQDPELAYISSNFITGHGIGKNQPRNKQMEAEFRKQEEVLRKFRAHETNLLIATSIVEEGVDIPKCNLVVRFDLPTEYRSYVQSKGRARAPISNYIMLADTDKIKSFEEDLKTYKAIEKILRNKCSKSVDTGETDIDPVMDDDDVFPPYVLRPDDGGPRVTINTAIGHINRYCARLPSDPFTHLAPKCRTRELPDGTFYSTLYLPINSPLRASIVGPPMSCVRLAERVVALICCEKLHKIGELDDHLMPVGKETVKYEEELDLHDEEETSVPGRPGSTKRRQCYPKAIPECLRDSYPRPDQPCYLYVIGMVLTTPLPDELNFRRRKLYPPEDTTRCFGILTAKPIPQIPHFPVYTRSGEVTISIELKKSGFMLSLQMLELITRLHQYIFSHILRLEKPALEFKPTDADSAYCVLPLNVVNDSSTLDIDFKFMEDIEKSEARIGIPSTKYTKETPFVFKLEDYQDAVIIPRYRNFDQPHRFYVADVYTDLTPLSKFPSPEYETFAEYYKTKYNLDLTNLNQPLLDVDHTSSRLNLLTPRHLNQKGKALPLSSAEKRKAKWESLQNKQILVPELCAIHPIPASLWRKAVCLPSILYRLHCLLTAEELRAQTASDAGVGVRSLPADFRYPNLDFGWKKSIDSKSFISISNSSSAENDNYCKHSTIVPENAAHQGANRTSSLENHDQMSVNCRTLLSESPGKLHVEVSADLTAINGLSYNQNLANGSYDLANRDFCQGNQLNYYKQEIPVQPTTSYSIQNLYSYENQPQPSDECTLLSNKYLDGNANKSTSDGSPVMAVMPGTTDTIQVLKGRMDSEQSPSIGYSSRTLGPNPGLILQALTLSNASDGFNLERLEMLGDSFLKHAITTYLFCTYPDAHEGRLSYMRSKKVSNCNLYRLGKKKGLPSRMVVSIFDPPVNWLPPGYVVNQDKSNTDKWEKDEMTKDCMLANGKLDEDYEEEDEEEESLMWRAPKEEADYEDDFLEYDQEHIRFIDNMLMGSGAFVKKISLSPFSTTDSAYEWKMPKKSSLGSMPFSSDFEDFDYSSWDAMCYLDPSKAVEEDDFVVGFWNPSEENCGVDTGKQSISYDLHTEQCIADKSIADCVEALLGCYLTSCGERAAQLFLCSLGLKVLPVIKRTDREKALCPTRENFNSQQKNLSVSCAAASVASSRSSVLKDSEYGCLKIPPRCMFDHPDADKTLNHLISGFENFEKKINYRFKNKAYLLQAFTHASYHYNTITDCYQRLEFLGDAILDYLITKHLYEDPRQHSPGVLTDLRSALVNNTIFASLAVKYDYHKYFKAVSPELFHVIDDFVQFQLEKNEMQGMDSELRRSEEDEEKEEDIEVPKAMGDIFESLAGAIYMDSGMSLETVWQVYYPMMRPLIEKFSANVPRSPVRELLEMEPETAKFSPAERTYDGKVRVTVEVVGKGKFKGVGRSYRIAKSAAARRALRSLKANQPQVPNS

How the values were obtained:
[1] = target: T1, ΔDEAD human Dicer (deletion of amino …); experiment: size exclusion chromatography with SDS-PAGE of fractions after 60 min pre-incubation on ice
Procedure: FIGS. 6A and 6B. Interaction of human Dicer with TRBP mediated by DEAD domain A, TRBP interacts with hDcr through DEAD domain. Prior to size exclusion chromatography, 2.5 nmol of each human Dicer protein and 9.0 nmol of TRBP were pre-incubated on ice for 60 minutes. Left panel, a chromatogram (top) of wild-type human Dicer (flhDcr) with TRBP and SDS-PAGE gel analysis of fractions (bottom); Right panel, a chromatogram (top) of ΔDEAD human Dicer (ΔDEAD) with TRBP and SDS-PAGE gel analysis of fractions (bottom). B, Binding of TRBP to hDcr increased its dicing activity. A multiple-turnover assay for 37ab cleavage using 100 nM dsRNA and 5 nM hDcr or hDcr-TRBP.

TRBP, Q15633 = target: T2, TRBP, Q15633

Binder | binding result [1] | cleavage rate in a multiple-turnover assay for 37ab cleavage (100 nM dsRNA, 5 nM hDcr or hDcr-TRBP) (TRBP, Q15633)
B1 | no binding | –
B2 | – | increased the cleavage rate of the resulting protein complex
